Assay results reported in patent publication US20260049138A1 (Chugai, published 2026).

Biological target: T1, CD3ε homodimer protein (human, UniProt P07766 23-126, limits assumed)
T1 construct: also called CD3 (CD3ε)
Assay: SPR Biacore T200, CD3ε homodimer on chip;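 note: Light-chain single-residue variant antibodies injected over amine-coupled CD3ε homodimer on a CM4 chip at 25 °C, bound amount divided by that of the GLS3000-containing antibody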

T1 sequence (P07766 23-126 limits assumed): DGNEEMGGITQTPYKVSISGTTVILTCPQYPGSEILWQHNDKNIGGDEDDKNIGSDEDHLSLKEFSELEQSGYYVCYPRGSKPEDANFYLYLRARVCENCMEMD

Row | ratio of amount bound vs unaltered GLS3000 | Binder
1 | 0.26 | GLS3000 G91S one-arm antibody (antibody, human IgG1, kappa, L234A L235A, N297A, name in Kabat numbering) heavy: QVQLVESGGGVVQPGRSLRLSCAASGFTFSNAWMHWVRQAPGKGLEWVAQIKAKSNNYATYYAESVKGRFTISRDDSKNSLYLQMNSLKTEDTAVYYCRYVHYGAYYGVDAWGQGTTVTVSSASTKGPSVFPLAPSSKSTSGGTAALGCLVKDYFPEPVTVSWNSGALTSGVHTFPAVLQSSGLYSLSSVVTVPSSSLGTQTYICNVNHKPSNTKVDKKVEPKSCDKTHTCPPCPAPEAAGGPSVFLFPPKPKDTLMISRTPEVTCVVVDVSHEDPEVKFNWYVDGVEVHNAKTKPREEQYASTYRVVSVLTVLHQDWLNGKEYKCKVSNKALPAPIEKTISKAKGQPREPQVYTLPPSRCELTKNQVSLSCAVKGFYPSDIAVEWESNGQPENNYKTTPPVLDSDGSFFLVSKLTVDKSRWQQGNVFSCSVMHEALHNHYTQKSLSLSPDYKDDDDK EPKSSDKTHTCPPCPAPELLGGPSVFLFPPKPKDTLMISRTPEVTCVVVDVSHEDPEVKFNWYVDGVEVHNAKTKPREEQYNSTYRVVSVLTVLHQDWLNGKEYKCKVSNKALPAPIEKTISKAKGQPREPQVCTLPPSRDELTKNQVSLWCLVKGFYPSDIAVEWESNGQPENNYKTTPPVLDSDGSFFLYSKLTVDKSRWQQGNVFSCSVMHEALHNRYTQKSLSLSP light: DIVMTQSPLSLPVTPGEPASISCRSSQSLVHSNRNTYLHWYQQKPGQAPRLLIYKVSNRFSGVPDRFSGSGSGTDFTLKISRVEAEDVGVYYCGQSTQVPYTFGQGTKLEIKRTVAAPSVFIFPPSDEQLKSGTASVVCLLNNFYPREAKVQWKVDNALQSGNSQESVTEQDSKDSTYSLSSTLTLSKADYEKHKVYACEVTHQGLSSPVTKSFNRGEC
2 | 0.26 | GLS3000 G91T one-arm antibody (antibody, human IgG1, kappa, L234A L235A, N297A, name in Kabat numbering) heavy: QVQLVESGGGVVQPGRSLRLSCAASGFTFSNAWMHWVRQAPGKGLEWVAQIKAKSNNYATYYAESVKGRFTISRDDSKNSLYLQMNSLKTEDTAVYYCRYVHYGAYYGVDAWGQGTTVTVSSASTKGPSVFPLAPSSKSTSGGTAALGCLVKDYFPEPVTVSWNSGALTSGVHTFPAVLQSSGLYSLSSVVTVPSSSLGTQTYICNVNHKPSNTKVDKKVEPKSCDKTHTCPPCPAPEAAGGPSVFLFPPKPKDTLMISRTPEVTCVVVDVSHEDPEVKFNWYVDGVEVHNAKTKPREEQYASTYRVVSVLTVLHQDWLNGKEYKCKVSNKALPAPIEKTISKAKGQPREPQVYTLPPSRCELTKNQVSLSCAVKGFYPSDIAVEWESNGQPENNYKTTPPVLDSDGSFFLVSKLTVDKSRWQQGNVFSCSVMHEALHNHYTQKSLSLSPDYKDDDDK EPKSSDKTHTCPPCPAPELLGGPSVFLFPPKPKDTLMISRTPEVTCVVVDVSHEDPEVKFNWYVDGVEVHNAKTKPREEQYNSTYRVVSVLTVLHQDWLNGKEYKCKVSNKALPAPIEKTISKAKGQPREPQVCTLPPSRDELTKNQVSLWCLVKGFYPSDIAVEWESNGQPENNYKTTPPVLDSDGSFFLYSKLTVDKSRWQQGNVFSCSVMHEALHNRYTQKSLSLSP light: DIVMTQSPLSLPVTPGEPASISCRSSQSLVHSNRNTYLHWYQQKPGQAPRLLIYKVSNRFSGVPDRFSGSGSGTDFTLKISRVEAEDVGVYYCGQTTQVPYTFGQGTKLEIKRTVAAPSVFIFPPSDEQLKSGTASVVCLLNNFYPREAKVQWKVDNALQSGNSQESVTEQDSKDSTYSLSSTLTLSKADYEKHKVYACEVTHQGLSSPVTKSFNRGEC
3 | 0.17 | GLS3000 G91Y one-arm antibody (antibody, human IgG1, kappa, L234A L235A, N297A, name in Kabat numbering) heavy: QVQLVESGGGVVQPGRSLRLSCAASGFTFSNAWMHWVRQAPGKGLEWVAQIKAKSNNYATYYAESVKGRFTISRDDSKNSLYLQMNSLKTEDTAVYYCRYVHYGAYYGVDAWGQGTTVTVSSASTKGPSVFPLAPSSKSTSGGTAALGCLVKDYFPEPVTVSWNSGALTSGVHTFPAVLQSSGLYSLSSVVTVPSSSLGTQTYICNVNHKPSNTKVDKKVEPKSCDKTHTCPPCPAPEAAGGPSVFLFPPKPKDTLMISRTPEVTCVVVDVSHEDPEVKFNWYVDGVEVHNAKTKPREEQYASTYRVVSVLTVLHQDWLNGKEYKCKVSNKALPAPIEKTISKAKGQPREPQVYTLPPSRCELTKNQVSLSCAVKGFYPSDIAVEWESNGQPENNYKTTPPVLDSDGSFFLVSKLTVDKSRWQQGNVFSCSVMHEALHNHYTQKSLSLSPDYKDDDDK EPKSSDKTHTCPPCPAPELLGGPSVFLFPPKPKDTLMISRTPEVTCVVVDVSHEDPEVKFNWYVDGVEVHNAKTKPREEQYNSTYRVVSVLTVLHQDWLNGKEYKCKVSNKALPAPIEKTISKAKGQPREPQVCTLPPSRDELTKNQVSLWCLVKGFYPSDIAVEWESNGQPENNYKTTPPVLDSDGSFFLYSKLTVDKSRWQQGNVFSCSVMHEALHNRYTQKSLSLSP light: DIVMTQSPLSLPVTPGEPASISCRSSQSLVHSNRNTYLHWYQQKPGQAPRLLIYKVSNRFSGVPDRFSGSGSGTDFTLKISRVEAEDVGVYYCGQYTQVPYTFGQGTKLEIKRTVAAPSVFIFPPSDEQLKSGTASVVCLLNNFYPREAKVQWKVDNALQSGNSQESVTEQDSKDSTYSLSSTLTLSKADYEKHKVYACEVTHQGLSSPVTKSFNRGEC
4 | 0.22 | GLS3000 H27dD one-arm antibody (antibody, human IgG1, kappa, L234A L235A, N297A, name in Kabat numbering) heavy: QVQLVESGGGVVQPGRSLRLSCAASGFTFSNAWMHWVRQAPGKGLEWVAQIKAKSNNYATYYAESVKGRFTISRDDSKNSLYLQMNSLKTEDTAVYYCRYVHYGAYYGVDAWGQGTTVTVSSASTKGPSVFPLAPSSKSTSGGTAALGCLVKDYFPEPVTVSWNSGALTSGVHTFPAVLQSSGLYSLSSVVTVPSSSLGTQTYICNVNHKPSNTKVDKKVEPKSCDKTHTCPPCPAPEAAGGPSVFLFPPKPKDTLMISRTPEVTCVVVDVSHEDPEVKFNWYVDGVEVHNAKTKPREEQYASTYRVVSVLTVLHQDWLNGKEYKCKVSNKALPAPIEKTISKAKGQPREPQVYTLPPSRCELTKNQVSLSCAVKGFYPSDIAVEWESNGQPENNYKTTPPVLDSDGSFFLVSKLTVDKSRWQQGNVFSCSVMHEALHNHYTQKSLSLSPDYKDDDDK EPKSSDKTHTCPPCPAPELLGGPSVFLFPPKPKDTLMISRTPEVTCVVVDVSHEDPEVKFNWYVDGVEVHNAKTKPREEQYNSTYRVVSVLTVLHQDWLNGKEYKCKVSNKALPAPIEKTISKAKGQPREPQVCTLPPSRDELTKNQVSLWCLVKGFYPSDIAVEWESNGQPENNYKTTPPVLDSDGSFFLYSKLTVDKSRWQQGNVFSCSVMHEALHNRYTQKSLSLSP light: DIVMTQSPLSLPVTPGEPASISCRSSQSLVDSNRNTYLHWYQQKPGQAPRLLIYKVSNRFSGVPDRFSGSGSGTDFTLKISRVEAEDVGVYYCGQGTQVPYTFGQGTKLEIKRTVAAPSVFIFPPSDEQLKSGTASVVCLLNNFYPREAKVQWKVDNALQSGNSQESVTEQDSKDSTYSLSSTLTLSKADYEKHKVYACEVTHQGLSSPVTKSFNRGEC
